{
  "source": "the DeepSol protein solubility set",
  "data": [
    {"assay": "soluble on expression in E. coli; label from the status in PepcDB or PDB records", "values": [
      {"sequence": "MGSDKIHHHHHHMLNEIITIYAITDDLLKAIGHDDDIRRDMIDAEIITTALVAAMFFNGNHSKACAYMKDHKLIPNMLEKSRFNLRLHNLSMLLNDLFHQIGMIIKEISDSTEYLLDSFPVTICDNIRIFQVHLIQSEEYRGYIASKKRYFYGVRVQLISTKSGIPVEFAFLPGSANDVRGLNALPFNLPPGSEVYADAAYTDYTVEDDMAQSSQISLKVMRKKNSKRQDQPWNQYVKQYTRHYIETVFSCITCIFPKSIHAVTYEGFLLKLQAFIFAFTLKSAFM", "soluble on expression in E. coli": "not soluble"},
      {"sequence": "MAHHHHHHMERMSLAVVRQLDADHERGGIWYLSGHRDHVLSIAASSHGVFATCDAKGLGLLWKHDTSHSNSDPSHVSRISSEGPAIVAACFPSSTRLCTAQGNGRVGVWDIEASTEVQSLSRLPSRGKSVNWPVINALSAWESDLVAYGGDDGYLVLSSLAVRNPVVSVNLRVPITSVAAAATSLLVGDVLGNIRCFDTRTFKSLYCFQGHRGVVTSVSVKEDASLAVSYGMDDSLALWNALPFSLTTEDRLIHRGEFHQGDTKTLLRCDWATSGAALVPVSDGRVVYLSAPTLDGIRTILPGRHRREPAQCAAFIGDGYAVSSAETEVILQRI", "soluble on expression in E. coli": "not soluble"},
      {"sequence": "MPHTNGKGGGAQKWAGNNKRKRNFDGEQDPSVRKALKEKRLLKKRKQDLKGQEETMLDEVEQKYQEMLKKSSRTFLRFEDFPLSWRTLEGLKDNDYTKPTEIQRDTIAYSLTGSDVVGAAKTGSGKTLALVIPVLEALWRAKWSPDYGLGALIISPTRELALQTFSTINAVGAHHGFSCGLVIGGSDVAFERNRISGINIIVCTPGRLLQHMDENAQMSCDSLQVLVLDEADRMLDMGFSKQLNSIINNLPAERQTLLFSATQTRNVKDLCRVCTNDPVFVSVHENASAATPDNLKQSYVIVEEEHKINALWSFIEAHRKKKSLVFVSSCKQARFLTEAFSQLRPGLPVMGLWGTMNQKKRIETFTKFDESKAAVLIATDVASRGLDFEHIDWVIQVDCPAQIDDYIHRVGRSARMDDSGNSLLMVSPSQEEAMIGKLEKHSIPIEELKIHPDAMSDVRVKLRAILAESQELKEYAQKSIVAYLRSIYTMKDKKVFDVEAIDAAALADSFGLVSVPRVRFLNKKAKKSGEKLMEKEVKEEEEEASLVGKFAIDEDDEDIFTVKKPTGEPEQIKEEEAAEKISNITISKTKPLKKAVTKVSAAKKILNKKLKVNTKKTFGAEDDELEELEEGPSTITSYGLDIEKARQEIKSGDKEDRKRFKLLREQRRQEKLAKKNRRAEEEEAVEYDEDGSEDEPDISWLPDPDAVRRKYEEEPDEVEDLEQQALAALGRK", "soluble on expression in E. coli": "not soluble"},
      {"sequence": "MRARSDAGGQSVKSRTSNRSRSSRRSRVRSSISALVDNPQARPRELPVLCGWPVVRVEPVCEFVPEPVCGQAEVLGEPAAAHRVTSARRSPSTTVCSRSQKASAVVISSVSSVARVRRASVSSVDATTA", "soluble on expression in E. coli": "not soluble"},
      {"sequence": "MGSDKIHHHHHHMIPEEIYKILRKQRYQIDGHTAVKLCGWVRKKMLEDKNCYKSKFYGIETHRCIQCTPSVIWCQQNCIFCWRVLPRDIGIDISQIKEPKWEEPEVVYEKILAMHKRIIMGYAGVLDRVGEKKFKEALEPKHVAISLSGEPTLYPYLDELIKIFHKNGFTTFVVSNGILTDVIEKIEPTQLYISLDAYDLDSYRRICGGKKEYWESILNTLDILKEKKRTCIRTTLIRGYNDDILKFVELYERADVHFIELKSYMHVGYSQKRLKKEDMLQHDEILKLAKMLDENSSYKLIDDSEDSRVALLQNENRKINPKL", "soluble on expression in E. coli": "not soluble"},
      {"sequence": "MGSDKIHHHHHHMICMAVGIASLLFNIEEALNICESIKQITHLEIGIDNISECSELCKYKERISKLGLSIGIHLPMELNTCENIEYIRNSWINFIEKIEFELKGFDLRYFNLHLGYVMTNRVRKNRDKYLGNSVDFLDKLNTNSYVCIENTYSKGGDFSNIGNISYDFEYIFKRIKNSKICFCYDTGHCLIDEDAYVKNLKDKIRLIHLSDNDGINDTHVGIGRGILSEEGIKEVLTLDAEYLVLEINYEDIEDTISKLNNIVGEG", "soluble on expression in E. coli": "not soluble"},
      {"sequence": "MGHHHHHHSHQKGRYTELVEEKYKLFGELYKTFTKGGLICCSIESPNQEEQEVETDWGLLKGHTYTMTDIRKIRLGERLVEVFSAEKVYMVRLRNPLGRQEWSGPWSEISEEWQQLTASDRKNLGLVMSDDGEFWMSLEDFCRNFHKLNVCRNVNNPIFGR", "soluble on expression in E. coli": "not soluble"},
      {"sequence": "MAVLYLVGTPIGNLADITYRAVDVLKRVDMIACEDTRVTSKLCNHYDIPTPLKSYHEHNKDKQTAFIIEQLELGLDVALVSDAGLPLISDPGYELVVAAREANIKVETVPGPNAGLTALMASGLPSYVYTFLGFLPRKEKEKSAVLEQRMHENSTLIIYESPHRVTDTLKTIAKIDATRQVSLGRELTKKFEQIVTDDVTQLQALIQQGDVPLKGEFVILIEGAKANNEISWFDDLSINEHVDHYIQTSQMKPKQAIKKVAEERQLKTNEVYNIYHQIS", "soluble on expression in E. coli": "not soluble"},
      {"sequence": "MAMKRREMLSLCGKSVIALGCGGLPAILRAQGRFPSKALTYVVAYTPGSANDILVRILAPELGTQLGQSIIVDNKPGAGGSIGMAAVAQSKADGYTLGLGSTATMAINRALYKNLPYDPLRDFESVVKFASTANVLVVPAGGPAKTLADLKPRDGKPLMFSSPGNGTTQHLAGVLFSSTTKLPTEHVPYRGPAESVMAVASGEVDFSLASLPSALAQIRAGRLRVLGCTSLKPPSSLPQAVSLAEQGLPGFERTEVWFGLVVPSGTPDQARLALEQASVQVLGKQDVREKLEQAGYQPANPQSEGKFDPFVREQVAFWADLVKQAGASIDLEHHHHHH", "soluble on expression in E. coli": "soluble"},
      {"sequence": "AVMHYTSDTEFCVSCHSMEIPYKEYQGSVHFSNAKGIRAECSDCHIPQEPMDYLITKIRASKDIYHEFVTGKIDTPEKYEAHRKDMAETVWAQFRENDSATCRSCHDFDAMEEFEQSRDAAKMHEYAKANDQTCIDCHKGVAHFAPEAELDSKAFETLMSFTTKTAANAKVVYPVTTINMGEMGTINPTTKLEVMSAEGDNRTVKLNAFQMKGAEQVLYMGEGQRAIVATLTEQGQQALEAGEFEADVYGNEWRAVSLTGAIDSPVVDTLDPVWSYAEELDNVYCATCHAKIPSNHFTV", "soluble on expression in E. coli": "not soluble"},
      {"sequence": "MSLRRARIAFASIDYTGDAWRHIPSVIGEMFAGIGEHAWRRDAVLEIVGVEDEEAEGYLRRVAERRPVDGLLLRVANDIRGEHLDILERAGMPYVLIKRHIPGRRMNCVISDDVTGARMATSHLLELGHRRIGFVCGKPHLTLNRERLAGYREALEEHGVGFDEGLVRQEEHFTTEMGYRAVRSLLEAPSRPSAVFVASDTMAIGGYEAVWDLGLRIPDDVSIVGYDDIQAASALQPPLTTVRTSYYDFGRLAAQLLLDLIEGREVAPQRRVIHPTLVVRGSTREGHHHHHH", "soluble on expression in E. coli": "soluble"},
      {"sequence": "MDGSQGSTDYGDHVVLRYGGTREMVPLIRHEQMLDMLMERARQIVQGFGNLDTRNMYLFRHEYNSPTLLYPITSASQITSGSILEIILVDRTEAAVIPHVVEPESYMRPTFCDFCGEMLTGLMRQGVKCKNCNGNFHKRCSNAARNNCGAPGAPGAQPSRPPILPPIPTTPTGFPVAALSTPTGLPHTLIEHSYRQFTVCKVCDHLLVGLVKQGLKCRDCGVNVHRKCAMELASNCVLSENAISRVNFTDPEGPGSSSSDNIPLFRLPGQVGTRATEKKKLEGWMMHFILSDPERRLKHYWMMQSNAIHLYNEYSEGIGVNPNRVYRIIPLAEITSVVQNNGKSVLAKHPPHCFEIRTTTNTVFCVGEDYHAFSGGPPKKIPRSMSVRPSSNTTMWFQFIKESLQPPSRNEDNAEQALEFANLYQVLSDKTLGSGQFGTVYSAIQRHSGKEVAVKVISKERFSKKGSGAESMRAEVAILQQTCHPGIVCLEFMCETKDKIFVVMEKMNGDMLEMILSQELGRLNSRATKFLLVQILCALKYLHDQGIAHCDLKPENVLLSDMGSNFPQTKICDFGYARFIPESQFRKTVVGTPAYLPPEVLQRKGYNKSLDMWSVGVIIYVTLSGTFPFNEGEEISEQIQNASFMFPTEPWSEVEPLAVDLIQKLLKVEIEARMSIEQCLDHGWLKGEQLYRDLRDLEVRLNTPRYLTSPQDDILYGTLVNP", "soluble on expression in E. coli": "not soluble"},
      {"sequence": "MGSDKIHHHHHHMNQVTTYLWETHLPGGSHWSGVVRRGTTLRLTDVSGGANAAVLFYNLEEKLERYNMADTLKTQHTFCLTKGHACHSDMGRIFCCITEDTAGWHDTVCGLSDAELIQQKYGTGRYQELRNDMYRNGLDGMLVELGKWGLGRRDVVSNINFFSKVTANSVGELQFHVSHSKAGDHVDLAFAMDTLVVLSAAPHPLDPAATYRPGAVNLAVFPSTPAVTGACAHIAENARGLENTRRLYAYGGVK", "soluble on expression in E. coli": "not soluble"},
      {"sequence": "MSLNRKLLTADERQARDTERRSQLDVALMEGVQAILDSDSFKAVLAANAKFHSYSVNNAMLIWLQNPAAERVAGFHTWRKLGRSVKKGAKGIMIYAPRVATNVDAATGSEETHVYFGIEHVFDISQTEGDDIPTLDCPVLTEERGHDVYDRLVTYATRDGLTVSSDVAHELSEAMGYYSAVSKRIWVRPTAKAQMLKTLIHEIAHHLTEGKHTREAHETIAEGVAFQVCACLGIDSGERSFPYIAGWSASEGGTALIKQVLGHIQAITKQVMAIVEPADEANEGAEGHHHHHH", "soluble on expression in E. coli": "soluble"},
      {"sequence": "MDIVISGGTGLIGRAITEIQGNTYNVITRGPSRTDGNINLVNWNDLRKIRHCDVVINLAGYNIGSKRWNPKIKEEIIRSRIESTRRMVEFISSLDSKPEAFLSGSAIGYYGYGENTVFDENSPPGTGFLAELANAWEDEALKASRYTRTVILRTSNVLSSSGGFLARIMNSRSRRVYYFGDGDQPVSWIHIKDYVNAVKFLMENKDISGPVNMAAPSPVSFADLAHAIAREKGYKEMKIPEFIGKLILGSEMYRELMSGQRVAPKKLTGSGFSFQYPDLESAIKNLLEHHHHHH", "soluble on expression in E. coli": "not soluble"},
      {"sequence": "MGSDKIHHHHHHMKSWVENVTIKKYEDRSGLTGLKQGPLVWTEVFLREVNRQSNTGILHFWPMDQTVILGMMDSQVAQLDKGLASIGQAGYSPIIRSLGGLAVVADDGILNVTLIFPNPSGHKVDLRESYQVMVDLIAQALSDFPFEVVSGEVATSYCPGTYDLSIKGRKFAGLAQRIYQEAIAISAYISVSGNQVKRGQVVADFYAASFAPQEVSDRFPQVNPNSMANLSDLVAQDLTMEDMKIRIEHVLIENGAFLTTFYPSSDNMADFMALGKTIKQSMEKYGI", "soluble on expression in E. coli": "not soluble"},
      {"sequence": "MGSDKIHHHHHHMTENEFLSQEEIDKLLSDSDTGGVLTPEEKDMIGEIGNIAMGSAATTLSMILGRDIHITVPTVREEKMKNVKSDFSGEQVVVSVEYTEGLEGLNVLVLDKKLVAVIADLMMGGSGEVETEELDEIKLSAVGEAMNQMMGSAATSLSELLGITINISPPKVEILNFDDPNTQFPPVTDNPEKDVAVVEFEMEIEGLPKSKFYQVISADLVKKMYEYFTKKQSEAAEKKEKKEEKKVKVEPVEFAELKPSETRKTEVPSDKLELLLDIPLKVTVELGRTRMTLKRVLEMIPGSIIELDKLTGEPVDILVNGKLIARGEVVVIDENFGVRITEIVSPKERLELLNE", "soluble on expression in E. coli": "not soluble"},
      {"sequence": "MGSDKIHHHHHHMAVKVLSIDLGATNGKIYEVELKDRLTVKEIKRFRTEGTFLPGKDREHFVWNLPGFYEEIKGVLEASDAQSVGVDTWGVDFALLDENGRLVSLPYHYRDVRTKGVMKKAFEVVPKDEIFQRTGIQFMEINTLYQLYSMVLSNDPFLKTTKHLLMIPDVFNFWLSGEMVSEYTIASTSQCYSVPDGEWAYDLLEKLSIPTEIFPKVVPPGTILGKCRVKKGINVIATACHDTASAVVAVPLEGEGIYISSGTWFLVGTELERPLLSKEALERNFTNEGGYGKIRFLKNATGMWLLEECNRIWKKDYSEIIESVRNVPGFQAFLDPDREEFLHPGNMPERIRNYLERTGQKILERIGEISRLIFESLAFNCRWIVEQIKELTGKRYGKIHVVGGAVRNDLLMSFIASATGKTVVAGPVDATPIGNALVQLITLGAIANINEARKIVKESFELKTFEPKNPELWSEKYEEWRRYKGMRV", "soluble on expression in E. coli": "not soluble"}
    ]}
  ]
}
